Assay results reported in paper PMC11381335, “Unraveling the structure and function of a novel SegC protein interacting with the SegAB chromosome segregation complex in Archaea” (Nucleic Acids Research, 2024).
One block for each compound: values may come before it.

How the values were obtained:
SegC (SSO0033) [1] = target: T1, SegC (SSO0033) (Saccharolobus solfataricus, UniProt Q981B4); assay: malachite green phosphate release; assay type: biochemical; conditions: 10 uM protein, 1 mM NTP, 2 mM MgCl2, 100 mM NaCl, pH 7.5, 37 °C, 1 h; no DNA
T1 construct: full length 165 residues, C-terminal His6 (pET21b), E. coli BL21(DE3)

SegC (SSO0033) [2] = target: T1, SegC (SSO0033); assay: X-ray crystal structure of ATP-soaked SegC crystals; assay type: binding; conditions: apo crystals soaked within one minute in 20 mM ATP, 2 mM MgCl2, pH 7.5; ADP modelled at the interface of two dimers (Tyr61, Arg73)
[3] = target: SegC labeled with Alexa488 green-fluorescent dye (Saccharolobus solfataricus); assay: fluorescence polarisation; 10 nM Alexa488-labeled SegC; SegA or SegB in 2-fold serial dilution from 10 uM; room temperature, 30 min; 20 mM HEPES-NaOH pH 7.3, 100 mM NaCl, 2 mM MgCl2; concentration of protein that binds 50% of the labeled SegC
[4] = target: SegC (SSO0033) (Saccharolobus solfataricus); assay: crystal structure; SegC crystals grown in 100 mM Tris-HCl pH 8.5, 300 mM potassium thiocyanate, 20°C; 2.8 Å; also soaked with 20 mM ATP (SegC-ADP)

SegC labeled with Alexa488 green-fluorescent dye (Saccharolobus solfataricus), sequence (Q981B4 entry or part of it): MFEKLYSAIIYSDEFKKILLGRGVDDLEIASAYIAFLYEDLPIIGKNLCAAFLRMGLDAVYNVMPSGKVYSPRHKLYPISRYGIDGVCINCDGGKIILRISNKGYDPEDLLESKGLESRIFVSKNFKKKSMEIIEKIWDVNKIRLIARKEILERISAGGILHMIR
T1 sequence (Q981B4 entry or part of it): as above

Compound: Nc1ccn([C@@H]2O[C@H](COP(=O)(O)OP(=O)(O)OP(=O)(O)O)[C@@H](O)[C@H]2O)c(=O)n1 [CTP]
malachite green phosphate release (SegC (SSO0033) [1]): SegC exhibited catalytic activity against all of the tested NTPs with no apparent preference

Compound: Nc1ncnc2c1ncn2[C@@H]1O[C@H](COP(=O)(O)OP(=O)(O)O)[C@@H](O)[C@H]1O [ADP]
X-ray crystal structure of ATP-soaked SegC crystals (SegC (SSO0033) [2]): In this SegC-ADP complex structure, two residues (Tyr61 and Arg73) were found to interact

Compound: SegB (natural protein)
Kd [3]: 1400 nM

The remaining lines, values ahead:

Kd [3]: 1800 nM
Compound: SegA (natural protein)

stoichiometry N [4]: 4
Compound: SegC (SSO0033) (natural protein)
